From patent US20200299738

Tests used:
[1] = molecular target: T1, C. eutactus acyl carrier protein (T protein; gene ceuT)
T1 chain: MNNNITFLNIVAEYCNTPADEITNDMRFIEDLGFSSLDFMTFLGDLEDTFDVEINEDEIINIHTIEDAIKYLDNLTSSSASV

[2] = molecular target: T2, E. rectale acyl carrier protein (T protein; gene ereT)
T2 chain: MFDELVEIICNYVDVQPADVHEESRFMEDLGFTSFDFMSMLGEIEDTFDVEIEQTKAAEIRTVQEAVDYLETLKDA

B1: E. rectale condensation domain protein (fatty acyl-transferase, C protein; gene ereC) (protein)
chain: MKTRKGHNVYPITVAQKFHLYYAKYCPNMAVLNIGTSLTIGTELDWNVLRDSINYAYARNEAMRIRFTRDKDGECYQYIADVDEDFKERTVDFKDFTDVTMEEAENEMQGWTQVPFEFEDSPMTKIVMIKMPDGFNGVYFLGHHMVVDAQSLIAFLKDIIEIYCNAMYEGVPFPKDMCSYIEQLKKDLAYEAGSKAQLRDREFFEKLIRQSEPIYNGIDGTAKLDAARELMHDNKLRSAFNASDDVTSALDIFHLEAEPTKRLMDFCEKYHISLACLLLMGIRTFFQKENGFDDVSVNNAIARRATLKEKKSGGTRIHSFPFRTCFSKDVRFIDAVYTIRDKQNELFRHANYNPTEYFALRSKTYPQPKAGLTYEPMSLTYQPMTLKEKGLNDLGDIKYKTKWYPNGMTTQAMYLTVMHRPEDNGLDFSFEHQVKAVSRKQLEYMYYYLCKIMFKGAENPELTIGEIIKLV
condensation activity (enzyme-catalysed FAA product formation) after swapping the T protein between the C. eutactus and E. rectale pathways [1]: While the C protein lost activity, the A protein retained activity after swapping the T protein
enzymatic production of hybrid FAA with the T and C protein pair from the same pathway and a swapped A protein [2]: Swapping the A domain, while retaining the T and C protein pair from the same pathway, permitted the enzymatic production of hybrid FAA that incorporated the substrates from two different pathways

B2: C. eutactus fatty acyl-ACP synthetase (A protein; gene ceuA) (protein)
chain: MEENILEIVEKSCRIHRDVIAVKYLSHREIVEKSYGDMWDDIRKTAVILRNNGLCGTHIALVGSSSYEWICAYMAILFTGNTAVPLDANLSVSELHELLNRSGSIALFCGASRKDVITELTDDCPEMNIVFTMEKKVDIEHLEGADSNPQLAILSFEQLRNEITIPDDFAFADQDKDKMCTLMYTSGTTGKSKGVMLSQFNLAQNVENVYVNLEPGVTILSVLPIHHAFCLTMEWMKGISLGATICINDSLLHMLKNMKRFQPVGMLMVPLMVETIYKKLKDVNPLLPKKLVAKEAFGGKLEYIFCGGAYLDPMYVTEFKKYGIDILQGYGMTECSPVICSNNHRYNRPGSVGKLLDNCAVRFVDEEIQVKGTSVMSGYYDMPNETAEAFQDGWLCTGDLGYLDSDGFMYITGRKKNLIILANGENISPEELEGKLSIEPLISEIVITGDGNHLTAHIYPDQDFVDKKHMDAARTSEKLQKIIDTFNKNQPTYKRISALDIRKEPFEKSSTKKIKRNLV
adenylation activity after swapping the T protein between the C. eutactus and E. rectale pathways [2]: While the C protein lost activity, the A protein retained activity after swapping the T protein

B3: E. rectale fatty acyl-ACP synthetase (A protein; gene ereA) (protein)
chain: MLFHTIPDILSYANEAYGADDAIRWKKSKNEIESRTYSELKNDTDSFANAIEKLGKKGQHIAVIGPSSYEWIVSYLAITESGSVAVPIDASLPAADICELLDRASVRMLIFDEARSDVAEAAAKSCHDINVYVSMNSTEHCPQVLSFKGLIDDNRGSYEPAVAEDALCTIMFTSGTTGKSKGVMLTQNNLAENATCLDMKIGPHTVILSVLPIHHAYCLSMDILKGISLGSVICINDSIMRMAKNIQLFTPDMILMVPLMIETFARKLEEVRAAGLPAEPVRKKMFGERLHTICSGGAYLNPDYVDLFAEFGITILQGYGMTECSPVISTNLSWDIRKNSVGKLMPNCEAKTVDGELFVRGTSVMQGYYKMPKETEETLSDGWLHTGDLGYVDEDGYIYLTGRRKNLIITKNGENVSPEELENALSVNHLIKEIIVRESEGVIEAEIFPDREYAQNTGIADIRSALQALIDEYNVNAPAYKRIYSIKVRESEFEKTASRKIKRS
adenylation activity after swapping the T protein between the C. eutactus and E. rectale pathways [1]: While the C protein lost activity, the A protein retained activity after swapping the T protein
LC-MS/MS detection of fatty acid thiotemplated T protein fragment after reaction with the A protein, Sfp and lauric acid [2]: This was further confirmed by the detection of fatty acid thiotemplated T protein fragment using LC-MS/MS (FIG. 22)
PPi level from ATP consumption (A and T proteins relative to negative control) [2]: Up to 30-fold increase in PPi level relative to negative control was observed with fatty acid substrates

B4: C. eutactus condensation domain protein (fatty acyl-transferase, C protein; gene ceuC) (protein)
chain: MPRKYYPLTPSQKIHFKPIIEFGTQQVANISICMTLQAPLDFGLLKKCIQLEYERYECLRIRFTKVDQNGEVRQYVVSRDDRDIDYENLSWLSGDDAYHRMEEWSRIPFDGDNIPMNVIKMISLPGGYNGLYIKIDHRLMDSCGAIVMVNDIMELYCHYKFGTPYPEDMASFTDMVERDLKKSTDEKRVSKDRMYWQNVLEENGEPIYSDIQGQRILQESRRLHNDKSLRAADQEINDLSVATKNYHLDAEPTQNLLDFCMNNHISMTNLILMGIRTYLSKANGGQTDISIRNYVSRRSTHAEWVSGGSRAMAYPCRTIIDPDTEFLDAVFMIQDVQNHVYRHCNYDPELLSDQMKEMFHTPPHTTYESVGLTYQPLPIRLKNPHLENISVRSMWIPNGTSKQKIYLTVMHSANDLGLNFYFRYQTASLSEQDIELFYYYLMKIIFKGIAEPEMTVGEIIECI
enzymatic production of hybrid FAA with the T and C protein pair from the same pathway and a swapped A protein [1]: Swapping the A domain, while retaining the T and C protein pair from the same pathway, permitted the enzymatic production of hybrid FAA that incorporated the substrates from two different pathways
condensation activity (enzyme-catalysed FAA product formation) after swapping the T protein between the C. eutactus and E. rectale pathways [2]: While the C protein lost activity, the A protein retained activity after swapping the T protein
